From patent publication US20240270846A1 (published 2024)
Residue numbers refer to the chain shown, from its start. Numbers in names are those of the source.

B1: CE115HA000/GLS3000 H34W one-arm antibody (antibody, human IgG1, kappa, L234A L235A, N297A, name in Kabat numbering)
heavy: QVQLVESGGGVVQPGRSLRLSCAASGFTFSNAWMHWVRQAPGKGLEWVAQIKAKSNNYATYYAESVKGRFTISRDDSKNSLYLQMNSLKTEDTAVYYCRYVHYGAYYGVDAWGQGTTVTVSSASTKGPSVFPLAPSSKSTSGGTAALGCLVKDYFPEPVTVSWNSGALTSGVHTFPAVLQSSGLYSLSSVVTVPSSSLGTQTYICNVNHKPSNTKVDKKVEPKSCDKTHTCPPCPAPEAAGGPSVFLFPPKPKDTLMISRTPEVTCVVVDVSHEDPEVKFNWYVDGVEVHNAKTKPREEQYASTYRVVSVLTVLHQDWLNGKEYKCKVSNKALPAPIEKTISKAKGQPREPQVYTLPPSRCELTKNQVSLSCAVKGFYPSDIAVEWESNGQPENNYKTTPPVLDSDGSFFLVSKLTVDKSRWQQGNVFSCSVMHEALHNHYTQKSLSLSPDYKDDDDK
chain: EPKSSDKTHTCPPCPAPELLGGPSVFLFPPKPKDTLMISRTPEVTCVVVDVSHEDPEVKFNWYVDGVEVHNAKTKPREEQYNSTYRVVSVLTVLHQDWLNGKEYKCKVSNKALPAPIEKTISKAKGQPREPQVCTLPPSRDELTKNQVSLWCLVKGFYPSDIAVEWESNGQPENNYKTTPPVLDSDGSFFLYSKLTVDKSRWQQGNVFSCSVMHEALHNRYTQKSLSLSP
light: DIVMTQSPLSLPVTPGEPASISCRSSQSLVHSNRNTYLWWYQQKPGQAPRLLIYKVSNRFSGVPDRFSGSGSGTDFTLKISRVEAEDVGVYYCGQGTQVPYTFGQGTKLEIKRTVAAPSVFIFPPSDEQLKSGTASVVCLLNNFYPREAKVQWKVDNALQSGNSQESVTEQDSKDSTYSLSSTLTLSKADYEKHKVYACEVTHQGLSSPVTKSFNRGEC
notes: one-arm IgG1
B2: CE115HA000/GLS3000 N53L one-arm antibody (antibody, human IgG1, kappa, L234A L235A, N297A, name in Kabat numbering)
heavy: B1 heavy
chain: B1 chain
light: B1 light with W39H, N58L
notes: one-arm IgG1
B3: CE115HA000/GLS3000 K50T one-arm antibody (antibody, human IgG1, kappa, L234A L235A, N297A, name in Kabat numbering)
heavy: B1 heavy
chain: B1 chain
light: B1 light with W39H, K55T
notes: one-arm IgG1
B4: CE115HA000/GLS3000 L33D one-arm antibody (antibody, human IgG1, kappa, L234A L235A, N297A, name in Kabat numbering)
heavy: B1 heavy
chain: B1 chain
light: B1 light with L38D, W39H
notes: one-arm IgG1
B5: CE115HA000/GLS3000 N53Q one-arm antibody (antibody, human IgG1, kappa, L234A L235A, N297A, name in Kabat numbering)
heavy: B1 heavy
chain: B1 chain
light: B1 light with W39H, N58Q
notes: one-arm IgG1
B6: CE115HA000/GLS3000 N53P one-arm antibody (antibody, human IgG1, kappa, L234A L235A, N297A, name in Kabat numbering)
heavy: B1 heavy
chain: B1 chain
light: B1 light with W39H, N58P
notes: one-arm IgG1
B7: CE115HA000/GLS3000 N53G one-arm antibody (antibody, human IgG1, kappa, L234A L235A, N297A, name in Kabat numbering)
heavy: B1 heavy
chain: B1 chain
light: B1 light with W39H, N58G
notes: one-arm IgG1
B8: CE115HA000/GLS3000 K50E one-arm antibody (antibody, human IgG1, kappa, L234A L235A, N297A, name in Kabat numbering)
heavy: B1 heavy
chain: B1 chain
light: B1 light with W39H, K55E
notes: one-arm IgG1
B9: CE115HA000/GLS3000 N53I one-arm antibody (antibody, human IgG1, kappa, L234A L235A, N297A, name in Kabat numbering)
heavy: B1 heavy
chain: B1 chain
light: B1 light with W39H, N58I
notes: one-arm IgG1
B10: CE115HA000/GLS3000 N53R one-arm antibody (antibody, human IgG1, kappa, L234A L235A, N297A, name in Kabat numbering)
heavy: B1 heavy
chain: B1 chain
light: B1 light with W39H, N58R
notes: one-arm IgG1
B11: CE115HA000/GLS3000 K50P one-arm antibody (antibody, human IgG1, kappa, L234A L235A, N297A, name in Kabat numbering)
heavy: B1 heavy
chain: B1 chain
light: B1 light with W39H, K55P
notes: one-arm IgG1
B12: CE115HA000/GLS3000 N53T one-arm antibody (antibody, human IgG1, kappa, L234A L235A, N297A, name in Kabat numbering)
heavy: B1 heavy
chain: B1 chain
light: B1 light with W39H, N58T
notes: one-arm IgG1
B13: CE115HA000/GLS3000 L33P one-arm antibody (antibody, human IgG1, kappa, L234A L235A, N297A, name in Kabat numbering)
heavy: B1 heavy
chain: B1 chain
light: B1 light with L38P, W39H
notes: one-arm IgG1
B14: CE115HA000/GLS3000 K50Q one-arm antibody (antibody, human IgG1, kappa, L234A L235A, N297A, name in Kabat numbering)
heavy: B1 heavy
chain: B1 chain
light: B1 light with W39H, K55Q
notes: one-arm IgG1
B15: CE115HA000/GLS3000 K50Y one-arm antibody (antibody, human IgG1, kappa, L234A L235A, N297A, name in Kabat numbering)
heavy: B1 heavy
chain: B1 chain
light: B1 light with W39H, K55Y
notes: one-arm IgG1
B16: CE115HA000/GLS3000 N53E one-arm antibody (antibody, human IgG1, kappa, L234A L235A, N297A, name in Kabat numbering)
heavy: B1 heavy
chain: B1 chain
light: B1 light with W39H, N58E
notes: one-arm IgG1
B17: CE115HA000/GLS3000 K107E one-arm antibody (antibody, human IgG1, kappa, L234A L235A, N297A, name in Kabat numbering)
heavy: B1 heavy
chain: B1 chain
light: B1 light with W39H, K112E
notes: one-arm IgG1
B18: CE115HA000/GLS3000 K50S one-arm antibody (antibody, human IgG1, kappa, L234A L235A, N297A, name in Kabat numbering)
heavy: B1 heavy
chain: B1 chain
light: B1 light with W39H, K55S
notes: one-arm IgG1
B19: CE115HA000/GLS3000 K50D one-arm antibody (antibody, human IgG1, kappa, L234A L235A, N297A, name in Kabat numbering)
heavy: B1 heavy
chain: B1 chain
light: B1 light with W39H, K55D
notes: one-arm IgG1
B20: CE115HA000/GLS3000 N53M one-arm antibody (antibody, human IgG1, kappa, L234A L235A, N297A, name in Kabat numbering)
heavy: B1 heavy
chain: B1 chain
light: B1 light with W39H, N58M
notes: one-arm IgG1
B21: CE115HA000/GLS3000 N53H one-arm antibody (antibody, human IgG1, kappa, L234A L235A, N297A, name in Kabat numbering)
heavy: B1 heavy
chain: B1 chain
light: B1 light with W39H, N58H
notes: one-arm IgG1
B22: CE115HA000/GLS3000 L33V one-arm antibody (antibody, human IgG1, kappa, L234A L235A, N297A, name in Kabat numbering)
heavy: B1 heavy
chain: B1 chain
light: B1 light with L38V, W39H
notes: one-arm IgG1
B23: CE115HA000/GLS3000 N53F one-arm antibody (antibody, human IgG1, kappa, L234A L235A, N297A, name in Kabat numbering)
heavy: B1 heavy
chain: B1 chain
light: B1 light with W39H, N58F
notes: one-arm IgG1
B24: CE115HA000/GLS3000 K50G one-arm antibody (antibody, human IgG1, kappa, L234A L235A, N297A, name in Kabat numbering)
heavy: B1 heavy
chain: B1 chain
light: B1 light with W39H, K55G
notes: one-arm IgG1
B25: CE115HA000/GLS3000 L33I one-arm antibody (antibody, human IgG1, kappa, L234A L235A, N297A, name in Kabat numbering)
heavy: B1 heavy
chain: B1 chain
light: B1 light with L38I, W39H
notes: one-arm IgG1
B26: CE115HA000/GLS3000 L33M one-arm antibody (antibody, human IgG1, kappa, L234A L235A, N297A, name in Kabat numbering)
heavy: B1 heavy
chain: B1 chain
light: B1 light with L38M, W39H
notes: one-arm IgG1
B27: CE115HA000/GLS3000 K50L one-arm antibody (antibody, human IgG1, kappa, L234A L235A, N297A, name in Kabat numbering)
heavy: B1 heavy
chain: B1 chain
light: B1 light with W39H, K55L
notes: one-arm IgG1
B28: CE115HA000/GLS3000 N53S one-arm antibody (antibody, human IgG1, kappa, L234A L235A, N297A, name in Kabat numbering)
heavy: B1 heavy
chain: B1 chain
light: B1 light with W39H, N58S
notes: one-arm IgG1
B29: CE115HA000/GLS3000 N53K one-arm antibody (antibody, human IgG1, kappa, L234A L235A, N297A, name in Kabat numbering)
heavy: B1 heavy
chain: B1 chain
light: B1 light with W39H, N58K
notes: one-arm IgG1
B30: CE115HA000/GLS3000 L33F one-arm antibody (antibody, human IgG1, kappa, L234A L235A, N297A, name in Kabat numbering)
heavy: B1 heavy
chain: B1 chain
light: B1 light with L38F, W39H
notes: one-arm IgG1
B31: CE115HA000/GLS3000 H34Y one-arm antibody (antibody, human IgG1, kappa, L234A L235A, N297A, name in Kabat numbering)
heavy: B1 heavy
chain: B1 chain
light: B1 light with W39Y
notes: one-arm IgG1
B32: CE115HA000/GLS3000 L33E one-arm antibody (antibody, human IgG1, kappa, L234A L235A, N297A, name in Kabat numbering)
heavy: B1 heavy
chain: B1 chain
light: B1 light with L38E, W39H
notes: one-arm IgG1
B33: CE115HA000/GLS3000 K50R one-arm antibody (antibody, human IgG1, kappa, L234A L235A, N297A, name in Kabat numbering)
heavy: B1 heavy
chain: B1 chain
light: B1 light with W39H, K55R
notes: one-arm IgG1

What follows are binders tested against T1, CD3 epsilon homodimer protein (UniProt P07766 23-126) (assay: SPR (Biacore T200), CD3e homodimer on CM4 chip, antibody as analyte; KD ratio vs unaltered GLS3000;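 also: CD3 epsilon homodimer amine-coupled to the sensor surface, antibodies injected as analyte at 25 °C with HBS-EP+ running buffer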).
T1 construct: also called CD3 (CD3 epsilon)
T1 sequence (P07766 23-126): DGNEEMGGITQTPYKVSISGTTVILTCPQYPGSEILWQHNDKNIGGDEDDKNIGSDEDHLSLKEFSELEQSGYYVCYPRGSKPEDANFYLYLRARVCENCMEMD

Row | Binder | KD ratio to GLS3000 [ratio]
1 | B1 | 8.45
2 | B2 | 1.62
3 | B3 | 25.1
4 | B4 | 37.5
5 | B5 | 1.28
6 | B6 | 0.98
7 | B7 | 1.33
8 | B8 | 57.2
9 | B9 | 2.69
10 | B10 | 1.56
11 | B11 | 27.7
12 | B12 | 2.68
13 | B13 | 32.7
14 | B14 | 8.13
15 | B15 | 195
16 | B16 | 2.47
17 | B17 | 0.95

Row | Binder | KD ratio to GLS3000 [ratio]
18 | B18 | 45.3
19 | B19 | 114
20 | B20 | 1.21
21 | B21 | 1.31
22 | B22 | 1.26
23 | B23 | 0.96
24 | B24 | 42.4
25 | B25 | 0.86
26 | B26 | 0.9
27 | B27 | 36.4
28 | B28 | 0.88
29 | B29 | 1.05
30 | B30 | 0.65
31 | B31 | 2.44
32 | B32 | 0.83
33 | B33 | 1.83
